Laboratory results published in publication PMC10611751 (2023).
Where two headings read alike, the source gives them in different places.

Tests used:
Experiment in all cases: ITC
AnkG R6-24 = target: T1, AnkG R6-24 (Rattus norvegicus)
T1 chain: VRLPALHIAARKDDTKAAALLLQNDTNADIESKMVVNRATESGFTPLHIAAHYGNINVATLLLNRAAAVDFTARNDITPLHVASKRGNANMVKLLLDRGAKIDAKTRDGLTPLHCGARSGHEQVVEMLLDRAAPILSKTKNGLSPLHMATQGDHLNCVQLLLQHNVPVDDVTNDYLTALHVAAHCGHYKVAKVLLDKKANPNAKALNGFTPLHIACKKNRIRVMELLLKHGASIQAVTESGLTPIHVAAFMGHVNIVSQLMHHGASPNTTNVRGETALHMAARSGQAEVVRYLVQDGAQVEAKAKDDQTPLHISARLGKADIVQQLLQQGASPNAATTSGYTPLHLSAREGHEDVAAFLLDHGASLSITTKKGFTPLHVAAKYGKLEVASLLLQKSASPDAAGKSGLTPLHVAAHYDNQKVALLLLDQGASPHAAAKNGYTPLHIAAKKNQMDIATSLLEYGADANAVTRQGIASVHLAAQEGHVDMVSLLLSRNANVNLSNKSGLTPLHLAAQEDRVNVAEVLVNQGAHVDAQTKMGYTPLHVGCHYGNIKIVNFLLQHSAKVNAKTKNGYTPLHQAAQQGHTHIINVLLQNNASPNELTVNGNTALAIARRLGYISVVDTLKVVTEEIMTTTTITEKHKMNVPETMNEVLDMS

[1] = target: T2, Ankyrin-G ANK repeats 8-14 (UniProt O70511 275-500)
T2 chain: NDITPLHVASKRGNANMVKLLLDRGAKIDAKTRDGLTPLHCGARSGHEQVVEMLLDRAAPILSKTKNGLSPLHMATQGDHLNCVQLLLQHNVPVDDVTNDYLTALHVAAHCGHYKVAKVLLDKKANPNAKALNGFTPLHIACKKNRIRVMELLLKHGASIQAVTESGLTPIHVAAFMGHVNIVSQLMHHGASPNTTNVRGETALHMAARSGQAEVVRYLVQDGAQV

[2] = target: E-cadherin CTD site-1, 3 to A (mouse, UniProt P09803 734-884, Y755A | Y756A | Y757A | Y861A | Y863A | W867A)
[3] = target: E-cadherin CTD site-1, 2 to A (mouse, UniProt P09803 734-884, Y755A | Y756A | Y757A | Y829A | Y837A)
[4] = target: E-cadherin CTD site-2 to A (mouse, UniProt P09803 734-884, Y829A | Y837A)
[5] = target: E-cadherin CTD site-3 to A (mouse, UniProt P09803 734-884, Y861A | Y863A | W867A)
[6] = target: E-cadherin CTD site-2, 3 to A (mouse, UniProt P09803 734-884, Y829A | Y837A | Y861A | Y863A | W867A)
[7] = target: E-cadherin CTD site-1, 2, 3 to A (a total of 8 aromatic residue substitutions) (mouse, UniProt P09803 734-884, Y755A | Y756A | Y757A | Y829A | Y837A | Y861A | Y863A | W867A)
[8] = target: E-cadherin CTD site-1 to A (mouse, UniProt P09803 734-884, Y755A | Y756A | Y757A)
[9] = target: T3, Ankyrin-G 24 ANK repeats (residues 38-855) (UniProt O70511 38-855)
T3 chain: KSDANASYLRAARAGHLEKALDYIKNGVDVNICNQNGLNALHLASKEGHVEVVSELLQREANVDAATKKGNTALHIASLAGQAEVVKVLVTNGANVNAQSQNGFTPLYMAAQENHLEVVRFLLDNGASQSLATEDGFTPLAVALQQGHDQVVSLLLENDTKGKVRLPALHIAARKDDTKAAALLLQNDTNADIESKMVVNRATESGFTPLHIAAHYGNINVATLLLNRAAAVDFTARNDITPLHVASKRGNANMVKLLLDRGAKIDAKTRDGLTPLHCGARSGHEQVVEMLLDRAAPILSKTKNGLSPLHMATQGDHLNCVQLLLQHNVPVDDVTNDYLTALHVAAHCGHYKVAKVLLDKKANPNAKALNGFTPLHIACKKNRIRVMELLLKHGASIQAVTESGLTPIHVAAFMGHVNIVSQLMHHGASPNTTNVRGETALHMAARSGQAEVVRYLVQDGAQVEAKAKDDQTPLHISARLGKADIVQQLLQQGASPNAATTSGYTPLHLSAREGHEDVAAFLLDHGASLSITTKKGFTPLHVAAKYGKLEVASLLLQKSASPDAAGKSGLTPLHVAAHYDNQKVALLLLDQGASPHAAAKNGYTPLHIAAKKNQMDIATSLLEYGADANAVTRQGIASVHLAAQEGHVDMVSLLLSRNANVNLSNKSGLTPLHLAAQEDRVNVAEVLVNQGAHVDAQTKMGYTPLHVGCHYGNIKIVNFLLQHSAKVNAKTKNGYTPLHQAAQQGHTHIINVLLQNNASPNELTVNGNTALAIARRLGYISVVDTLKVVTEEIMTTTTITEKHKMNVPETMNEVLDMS

[10] = target: T3, Ankyrin-G 24 ANK repeats (residues …)

A Kd (AnkG R6-24) of 1.8 µM and a Kd [1] of 8.9 µM were found for RDNVYYYDEEGGGEEDQDFDLSQLH (domain or fragment) [E-cadherin 751-775 (site-1)] in this work.

B1: p120 catenin 324-938 (domain or fragment)
chain: MIGEEVPPDQYYWAPLAQHERGSLASLDSLRKGMPPPSNWRQPELPEVIAMLGFRLDAVKSNAAAYLQHLCYRNDKVKTDVRKLKGIPILVGLLDHPKKEVHLGACGALKNISFGRDQDNKIAIKNCDGVPALVRLLRKARDMDLTEVITGTLWNLSSHDSIKMEIVDHALHALTDEVIIPHSGWEREPNEDCKPRHIEWESVLTNTAGCLRNVSSERSEARRKLRECDGLVDALIFIVQAEIGQKDSDSKLVENCVCLLRNLSYQVHREIPQAERYQEALPTVANSTGPHAASCFGAKKGKDEWFSRGKKPTEDPANDTVDFPKRTSPARGYELLFQPEVVRIYISLLKESKTPAILEASAGAIQNLCAGRWTYGRYIRSALRQEKALSAIAELLTSEHERVVKAASGALRNLAVDARNKELIGKHAIPNLVKNLPGGQQNSSWNFSEDTVVSILNTINEVIAENLEAAKKLRETQGIEKLVLINKSGNRSEKEVRAAALVLQTIWGYKELRKPLEKEGWKKSDFQVNLNNASRSQSSHSYDDSTLPLIDRNQKSDKKPDREEIPMSNMGSNTKSLDNNYSTLNERGDHNRTLDRSGDLGDMEPLKGAPLMQKI
In the case of B1, the Kd [2] is reported as > 30 µM, the Kd [3] is reported as > 70 µM and the Kd [4] is reported as 2.8 µM. For the same binder, the Kd [5] was 2.9 µM, the Kd [6] was 1.8 µM and the Kd [7] was > 50 µM. The Kd [8] was > 50 µM.

A Kd [9] of 2.2 µM was found for YYADEEGGGEEDQDFD (domain or fragment) [E-cadherin site-1 Y757A] in this work.

B2: full-length β-catenin 1-781 (natural protein)
chain: MATQADLMELDMAMEPDRKAAVSHWQQQSYLDSGIHSGATTTAPSLSGKGNPEEEDVDTSQVLYEWEQGFSQSFTQEQVADIDGQYAMTRAQRVRAAMFPETLDEGMQIPSTQFDAAHPTNVQRLAEPSQMLKHAVVNLINYQDDAELATRAIPELTKLLNDEDQVVVNKAAVMVHQLSKKEASRHAIMRSPQMVSAIVRTMQNTNDVETARCTAGTLHNLSHHREGLLAIFKSGGIPALVKMLGSPVDSVLFYAITTLHNLLLHQEGAKMAVRLAGGLQKMVALLNKTNVKFLAITTDCLQILAYGNQESKLIILASGGPQALVNIMRTYTYEKLLWTTSRVLKVLSVCSSNKPAIVEAGGMQALGLHLTDPSQRLVQNCLWTLRNLSDAATKQEGMEGLLGTLVQLLGSDDINVVTCAAGILSNLTCNNYKNKMMVCQVGGIEALVRTVLRAGDREDITEPAICALRHLTSRHQEAEMAQNAVRLHYGLPVVVKLLHPPSHWPLIKATVGLIRNLALCPANHAPLREQGAIPRLVQLLVRAHQDTQRRTSMGGTQQQFVEGVRMEEIVEGCTGALHILARDVHNRIVIRGLNTIPLFVQLLYSPIENIQRVAAGVLCELAQDKEAAEAIEAEGATAPLTELLHSRNEGVATYAAAVLFRMSEDKPQDYKKRLSVELTSSLFRTEPMAWNETADLGLDIGAQGEALGYRQDDPSYRSFHSGGYGQDALGMDPMMEHEMGGHHPGADYPVDGLPDLGHAQDLMDGLPPGDSNQLAWFDTDL
A Kd [2] of 0.098 µM, a Kd [3] of 3.6 µM and a Kd [4] of 4.8 µM were found for B2 in this work. The Kd [5] was 0.11 µM, the Kd [6] was 1.4 µM and the Kd [7] was 8.1 µM. For the same binder, the Kd [8] was 0.056 µM.

B3: E-cadherin 828-869 (containing both site-2 and site-3) (domain or fragment)
chain: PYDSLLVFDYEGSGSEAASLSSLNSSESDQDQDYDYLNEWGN
A Kd (AnkG R6-24) of 1 µM and a Kd [1] of 7.1 µM were found for B3 in this work.

A Kd [9] of 5.8 µM was found for ESDQDQDADALNEWGN [E-cadherin 854-869 Y861A,Y863A] in this work.

B4: E-cadherin 776-884 (domain or fragment)
chain: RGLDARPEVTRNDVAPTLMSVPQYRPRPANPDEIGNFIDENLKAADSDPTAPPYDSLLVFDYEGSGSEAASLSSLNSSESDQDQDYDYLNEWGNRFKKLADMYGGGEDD
A Kd [10] of 0.8 µM was found for B4 in this work.

A Kd [9] of 3.9 µM was found for ESDQDQDYDALNEWGN (domain or fragment) [E-cadherin site-3 Y863A] in this work.

A Kd [9] of 9.5 µM was found for PYDSLLVFDAEGSGS (domain or fragment) [E-cadherin site-2 Y837A] in this work.

A Kd [9] of 1.7 µM was found for PADSLLVFDYEGSGS (domain or fragment) [E-cadherin site-2 Y829A] in this work.

A Kd [9] of 2.2 µM was found for YAYDEEGGGEEDQDFD (domain or fragment) [E-cadherin site-1 Y756A] in this work.

A Kd [9] of 3.9 µM was found for ESDQDQDYDYLNEAGN (domain or fragment) [E-cadherin site-3 W867A] in this work.

A Kd [9] of 4.1 µM was found for AYADEEGGGEEDQDFD [E-cadherin 755-770 Y755A,Y757A] in this work.

A Kd [9] of 3.2 µM was found for ESDQDQDADYLNEWGN (domain or fragment) [E-cadherin site-3 Y861A] in this work.

A Kd [9] of 4.2 µM was found for AAYDEEGGGEEDQDFD [E-cadherin 755-770 Y755A,Y756A] in this work.

A Kd [9] of 5 µM was found for AYYDEEGGGEEDQDFD (domain or fragment) [E-cadherin site-1 Y755A] in this work.

B5: E-cadherin 734-775 (domain or fragment)
chain: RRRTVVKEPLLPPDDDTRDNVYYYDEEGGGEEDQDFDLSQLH
A Kd [10] of 1.5 µM was found for B5 in this work.

A Kd [9] of 7.1 µM was found for YAADEEGGGEEDQDFD [E-cadherin 755-770 Y756A,Y757A] in this work.

B6: E-cadherin 734-838 (protein)
chain: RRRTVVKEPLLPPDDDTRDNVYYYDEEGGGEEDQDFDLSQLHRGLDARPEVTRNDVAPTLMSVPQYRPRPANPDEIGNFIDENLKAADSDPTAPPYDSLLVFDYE
A Kd [10] of 1.1 µM was found for B6 in this work.
